Values of other authors, collected in paper PMC2517140.

Biological target: gp41 trimeric inner core (Human immunodeficiency virus 1) (UniProt O70902)

Substance: gp41 outer-layer peptide (from UniProt O70902)
- Kd: 1 nM
